Consider eight substances from publication PMC10938909.

For assay [1], the target named is secretory chicken FcRY (lacking the membrane-spanning domain, residues 36-1396) (chicken). The experiment in a line: BLI; BLItz, advanced kinetics; chicken FcRY (400 nM) immobilised on Ni-NTA sensor via His tag; Igs 50-600 nM; pH 5.5 (PBS, 0.05% Tween 20, 20 mM MES, 0.5% BSA); association 120 s, dissociation 120 s; 1:1 fit.
Assay [2] shares this target.
Assay [3] shares this target. The assay can be described thus: ELISA; graded pH (pH 4.0-7.4), IgY-Fc mutants at 55.6 nM on FcRY held on copper-coated plates; the acidic points (strongest at pH 5.5, pH 5.0-6.0). In general terms: An ELISA detects its analyte on a solid surface through an enzyme-linked reagent.
Assay [4] has the same target. This is another data set of the same source.
Assay [5] concerns the target secretory chicken FcRY (lacking the membrane-spanning domain, residues 36-1396). The assay can be described thus: competitive binding assay against DIG-IgY on FcRY-immobilized plate, ELISA. As to conditions: pH 6.0, DIG-IgY tracer (m10) 27.8 nM, value is DIG-IgY still bound (lower = stronger competition), no-competitor level est. 0.17 nM, n = 3, read off a plot.
Assay [6] has as its target recombinant quail IgY-Fc wild type (WT). The assay can be described thus: bio-layer interferometry (BLItz, advanced kinetics mode). As to conditions: pH 5.5; PBS (composition not stated); PBS with 20 mM MES at pH 5.5 or 20 mM HEPES at pH 7.4.
The target in assay [7] is recombinant quail IgY-Fc G365A G365A. The description is as above. The settings on record: pH 5.5; PBS (composition not stated); PBS with 20 mM MES at pH 5.5 or 20 mM HEPES at pH 7.4.
For assay [8], the target named is recombinant quail IgY-Fc Y363A Y363A. The assay is described as above. As to conditions: pH 5.5; PBS (composition not stated); PBS with 20 mM MES at pH 5.5 or 20 mM HEPES at pH 7.4.
Another assay concerns the target native quail IgY (qIgY). The assay is described as above. As to conditions: pH 5.5; PBS (composition not stated); PBS with 20 mM MES at pH 5.5 or 20 mM HEPES at pH 7.4.
The mark [9] stands for this setting: competitor 55.6 nM, parent: est. 0.080.
[10] abbreviates: competitor 111.1 nM, parent: est. 0.060.
[11] abbreviates: competitor 277.8 nM, parent: est. 0.042.

With native quail IgY (ligand), in [1], the Kd was 275 nM, the koff is 0.0095 s⁻¹ and the kon worked out at 35000 M⁻¹ s⁻¹.
Substance “quail IgY-Fc mutant G365A (domain or fragment)” had an uptake of the intravenously injected DIG-labeled IgY-Fc mutant (20 ug/100 g BW) into quail egg yolks, eggs of 6 d, relative to WT in [2] of 2 fold. In assay [1], the Kd came out at 197 nM, the koff was 0.0082 s⁻¹ and the kon turned out to be 42000 M⁻¹ s⁻¹.
Turning to “quail IgY-Fc mutant Y363A (domain or fragment)”, the amount bound at pH 5.0-6.0 relative to WT and G365A in [3] was 2 fold. In assay [1], this substance came in with a Kd of 65 nM, a koff of 0.0015 s⁻¹ and a kon of 23000 M⁻¹ s⁻¹.
In [4], “recombinant quail wild-type IgY-Fc (domain or fragment)” gave an uptake of DIG-labeled WT tracer into egg yolks of laying quail co-injected with the FcRY-neutralizing rabbit antibody Strong Ab (1 mg/100 g BW), relative to control rabbit IgG of 20% and an uptake of DIG-labeled WT tracer into egg yolks of laying quail co-injected with the FcRY-neutralizing rabbit antibody Weak Ab (1 mg/100 g BW), relative to control of 60%. In assay [1], this substance showed a Kd of 333 nM, a koff of 0.0065 s⁻¹ and an association rate constant (kon) of 19000 M⁻¹ s⁻¹.
Regarding “recombinant quail wild-type IgY-Fc G365D”, the values for the response in assay [5] (setting [9]), in assay [5] (setting [10]) and in [5] (setting [11]) were 0.15 nM, 0.13 nM and 0.14 nM, respectively.
For the substance “recombinant quail wild-type IgY-Fc G365S”, the response in assay [5] (setting [9]) turned out to be 0.086 nM; in [5] (setting [10]) it was 0.066 nM; in [5] (setting [11]) it was 0.05 nM.
Take “recombinant quail wild-type IgY-Fc N408A”: the response in [5] (setting [9]) is 0.11 nM; in assay [5] (setting [10]), 0.1 nM; in assay [5] (setting [11]) it was 0.086 nM.
Take “secretory FcRY (IgY-Fc receptor, PLA2R homologue) ectodomain”: the ka in [6] stood at 19000 M⁻¹ s⁻¹; in [7], 42000 M⁻¹ s⁻¹; in [8] it was 23000 M⁻¹ s⁻¹; in the assay with native quail IgY (qIgY), 35000 M⁻¹ s⁻¹. The kd in [6] was determined as 0.0065 s⁻¹; in assay [7], 0.0082 s⁻¹; in assay [8], 0.0015 s⁻¹; with native quail IgY (qIgY) it was 0.0095 s⁻¹.

By Kd is commonly meant the free concentration of one partner at which half of the binding sites on the other are occupied at equilibrium, for simple one-to-one binding. The koff is the rate constant with which the complex falls apart. The term kon denotes the rate constant with which the complex forms.
